# T1: human VWF-A2 fragment
# T1 chain: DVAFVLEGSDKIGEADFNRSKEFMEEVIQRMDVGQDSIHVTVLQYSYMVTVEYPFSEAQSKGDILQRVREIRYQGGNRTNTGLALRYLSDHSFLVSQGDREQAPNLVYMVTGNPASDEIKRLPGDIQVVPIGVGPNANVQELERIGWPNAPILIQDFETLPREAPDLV
# Biological target: T1, human VWF-A2 fragment
# Experiment: microscale thermophoresis
# Set-up: unit not given beside the values
# Settings: chain shown with the change;; parent: est. 6.2e-9; read off a plot
binder,measurement,value
"human recombinant wild-type complement factor H, P08603 W1183R (protein) EDCNELPPRRNTEILTGSWSDQTYPEGTQAIYKCRPGYRSLGNVIMVCRKGEWVALNPLRKCQKRPCGHPGDTPFGTFTLTGGNVFEYGVKAVYTCNEGYQLLGEINYRECDTDGWTNDIPICEVVKCLPVTAPENGKIVSSAMEPDREYHFGQAVRFVCNSGYKIEGDEEMHCSDDGFWSKEKPKCVEISCKSPDVINGSPISQKIIYKENERFQYKCNMGYEYSERGDAVCTESGWRPLPSCEEKSCDNPYIPNGDYSPLRIKHRTGDEITYQCRNGFYPATRGNTAKCTSTGWIPAPRCTLKPCDYPDIKHGGLYHENMRRPYFPVAVGKYYSYYCDEHFETPSGSYWDHIHCTQDGWSPAVPCLRKCYFPYLENGYNQNYGRKFVQGKSIDVACHPGYALPKAQTTVTCMENGWSPTPRCIRVKTCSKSSIDIENGFISESQYTYALKEKAKYQCKLGYVTADGETSGSITCGKDGWSAQPTCIKSCDIPVFMNARTKNDFTWFKLNDTLDYECHDGYESNTGSTTGSIVCGYNGWSDLPICYERECELPKIDVHLVPDRKKDQYKVGEVLKFSCKPGFTIVGPNSVQCYHFGLSPDLPICKEQVQSCGPPPELLNGNVKEKTKEEYGHSEVVEYYCNPRFLMKGPNKIQCVDGEWTTLPVCIVEESTCGDIPELEHGWAQLSSPPYYYGDSVEFNCSESFTMIGHRSITCIHGVWTQLPQCVAIDKLKKCKSSNLIILEEHLKNKKEFDHNSNIRYRCRGKEGWIHTVCINGRWDPEVNCSMAQIQLCPPPPQIPNSHNMTTTLNYRDGEKVSVLCQENYLIQEGEEITCKDGRWQSIPLCVEKIPCSQPPQIEHGTINSSRSSQESYAHGTKLSYTCEGGFRISEENETTCYMGKWSSPPQCEGLPCKSPPEISHGVVAHMSDSYQYGEEVTYKCFEGFGIDGPAIAKCLGEKWSHPPSCIKTDCLSLPSFENAIPMGEKKDVYKAGEQVTYTCATYYKMDGASNVTCINSRWTGRPTCRDTSCVNPPTVQNAYIVSRQMSKYPSGERVRYQCRSPYEMFGDEEVMCLNGNWTEPPQCKDSTGKCGPPPPIDNGDITSFPLSVYAPASSVEYQCQNLYQLEGNKRITCRNGQWSEPPKCLHPCVISREIMENYNIALRRTAKQKLYSRTGESVEFVCKRGYRLSSRSHTLRTTCWDGKLEYPTCAKR",EC50,2.3e-09

# — PMC13123425
